{"source": "the DeepSol protein solubility set", "data": [{"experiment": "soluble on expression in E. coli; label from the status in PepcDB or PDB records", "values": [{"sequence": "MAENRYELNKNLAQMLKGGVIMDVQNPEQARIAEAAGAAAVMALERIPADIRAVGGVSRMSDPKMIKEIQGAVSIPVMAKVRIGHFVEAQILEAIEIDYIDESEVLSPADNRFHVDKKEFQVPFVCGAKDLGEALRRIAEGASMIRTKGEPGTGDIVQAVRHMRMMSQEIRRIQNLREDELYVAAKDLQVPVELVQYVHKHGKLPVVNFAAGGIATPADAALMMQLGAEGVFVGSGIFKSGDPIKRASAIVKAVTNYRNPQILAQISEDLGEAMVGINENEIQILMAERGKLEHHHHHH", "soluble on expression in E. coli": "not soluble"}, {"sequence": "MGSSHHHHHHSSGLVPRGSHMLEDPGEGQDIWDMLDKGNPFQFYLTRVSGVKPKYNSGALHIKDILSPLFGTLVSSAQFNYCFDVDWLVKQYPPEFRKKPILLVHGDKREAKAHLHAQAKPYENISLCQAKLDIAFGTHHTKMMLLLYEEGLRVVIHTSNLIHADWHQKTQGIWLSPLYPRIADGTHKSGESPTHFKANLISYLTAYNAPSLKEWIDVIHKHDLSETNVYLIGSTPGRFQGSQKDNWGHFRLKKLLKDHASSMPNAESWPVVGQFSSVGSLGADESKWLCSEFKESMLTLGKESKTPGKSSVPLYLIYPSVENVRTSLEGYPAGGSLPYSIQTAEKQNWLHSYFHKWSAETSGRSNAMPHIKTYMRPSPDFSKIAWFLVTSANLSKAAWGALEKNGTQLMIRSYELGVLFLPSALGLDSFKVKQKFFAGSQEPMATFPVPYDLPPELYGSKDRPWIWNIPYVKAPDTHGNMWVPS", "soluble on expression in E. coli": "soluble"}, {"sequence": "MSLTISTQCSKCEKIYDDNKRKICSGKCGHSICESCFDRKSSDICSICNQIDSFGVKCINRSAMEMVEMKKNAFSFSDIWIFKFDPKEHFNGPCSKCNDYSTMLRVCTNSAVQAGLLVKTGENSFDLTPHTTDELLETIILRIKSIGICADCVINNGLKEDVVMMKNIKRLYDIAKALNYLSMFSFSMKQIEREIEEFKNKKNQLRFYNMYYHFVKETYPEIMKWLKNDLVRISAPPCWQVLLKIVSIMTQAAQSLFLKSAERELQISKEKLRDSKGNSEWQKTVDKLENFRDFLEINHVDAEIQPIDMWNFFVLCTTEELDKVTAIINRNLKIQGKSSRETLKEVYYLTRDVRKTLPFQIPERFAGFIDRFIRVLVGENLDEEQALEIQSTT", "soluble on expression in E. coli": "not soluble"}, {"sequence": "MRILFIGDVVGSLGREALATYVPKLKKKYRPQVTIANGENAASGRGITGKIYKKFLQDGVDVVTMGNHTWDNKDIFEFIDDAKKMVRPANFPEDVPGQGMVFVKVNQLELAVINLQARTFMVPLEDPFKKAAELVAIARKRTPLIFVDFHGETTSEKQAMSWFLDGQVSAVVGTHTHVQTNDARILPKGTAFLSDVGMTGPYDGILGMKREPIIEKFMTALPKRFEVVETGRTILSACILEIDDQTGQAKMIEPIQISEDRPFQE", "soluble on expression in E. coli": "not soluble"}, {"sequence": "MSDATLHATDQNPDDFAVQIADQIESFLVAVTEVAKGDEPDSAVPFLLLEVSQLMLAGGRLGAHEDIVPDERYEPDPGPELDVDEIRENLARILDPVDVYSEVFDPYEPRKAPVPARISDDLTDVITDLRHGMVHYKAGRTTEALWWWQFSYFSNWGSTASATLRALQSVVAHVRLNQPLEELDGLDTDQELGEETLESEAGRVMVREIAAPLGLRPVKLEHHHHHH", "soluble on expression in E. coli": "soluble"}, {"sequence": "MGSDKIHHHHHHMYAYHPEDIEDIKELIAQTENEQVEFKETTGQLERGMETLCAFLNGEGGTVLFGITDKGKIIGQEVADVTKRSIAEAINRLEPTANVHVFYIPLPDSSKKIIALHVENSRDNRPFCYKSRPYYRVESVTSAMPQAVYNQLLIIRDEAKYRWELFENPKLSLQDMDENEILKTVRLGIECGRLPENTGNNLSIILEKFGLLVNGVLNNAAAVLFANRELIEYPQCLLRLARFKGTDKMVFMDNQRVQGNLFQLLDSAMTFIFKHLSLSGTTEALEREEHLTIPYKAIREGIINSLCHRQFRTPGGSVGIAIYDDRVEIENPGTFPHGWDMERMKSEHCSEPRNPLIANVLYKRKLLENWGRGISLMTEECRKANLPEPEFKLANGFVILVFRYGTNNHTSTMQVPHKHHISTIQVQSLLNIMEYNTYSVKEMMELLELKNRSYFSKEYLKPAVETGVIEPIFPDQPKSPKQKYRLTEKGKALLEKR", "soluble on expression in E. coli": "not soluble"}, {"sequence": "MGSDKIHHHHHHMTDEHSVFEYKIGLLAPSRVGKSTLIAGLLTEGQQQLAQDSSVHLLTADRPTKNRLAATYNLVSGALKARMFEPGLVPSTSDPSWFRLLLEARGQDLQIRFDILDYPGAWLEGAGEGTEDEQKWNECEAFLADSSVLILPIDSVLLMDSGDDHAHLLASHLSVFQINQAVLRWAKNRRELSGEPAMIVFCPVKCETYLSDSGSLQDHAGTLRGKVVDQFSDVLKTVRDAAPHAAVRYLPIDTFGCVELVSARWIHAQGSPGGEMLVPKYRVRPPGQIVRKGLDDLLTLLCRQLVDTARAQSERTTAAKQTAALNSRNHAELREGFFRDLWLNFNGERNRRRHTAATDERLFAMSQRTTQSLFDVLTALAGRESGPRLHHLS", "soluble on expression in E. coli": "not soluble"}, {"sequence": "MTPDPLYMRRAIELAQNAEGFTSPNPLVGAVLVAHGRIIGEGYHHCAGMPHAEVIAINSVRDRALLRESTLYVSLEPCSHYGKTPPCAELILREGIPHVVVAMLDPFPSVSGRGIKMLRDAGVSVQVGLLAEEAEELNRHFLTAQRQHRPYVTLKWAESSDGFIDALRDDASTPPVRLSTPLTTRFVHHRRMIHDAILVGFRTALLDNPSLTVRHWYGRNPLRVVTDRHLALPRHLTLFDGSVPTLVFTEKEQPSGYPSAVSFVRIDPSRPPVEQMLAELHARGIQSLLVEGGACILRSFIDSGLYDDVRIEHSTIILNEGVRAPHLPSY", "soluble on expression in E. coli": "not soluble"}, {"sequence": "MGSDKIHHHHHHMIMLTVSDYLAQPVVSPDVSIRYGDHPDQFGDLYLPAQVHPAPVVMMIHGGCWQAAYPLTPLGECCAALRARGYAVWNLEYRRLGNGGGWPSTFLDVAAGADHLRVLAEHYPLDLNRVVVVGHSAGGHLALWLATRPKLPPTSPLYIPHPLPVHGVVALAAVADLRRGVTATACGTACLELIDNEESRCAEASPHARLPLDIPHYHLVGGDDPIVPASYVAAFVDAARQAGDLAHLTIVPKCGHFELTTPHSQAWQTVVQTIDKACSLNRS", "soluble on expression in E. coli": "not soluble"}, {"sequence": "MGSDKIHHHHHHCNFDGRPCCWANVPPPDDQLDWQIASGVPVQLQNRGVPQPEGSYLIAYAKSAAPSDEAQFASCSIGCASSDIVVRAKHWQSESVLLQVCLRESFPSNAERNPLINCQEFPYVDGMGTTEVILPKTSLVDIVFVASNFIGDQGDVAILDDIEVSYDRNGSECQN", "soluble on expression in E. coli": "not soluble"}, {"sequence": "EVKLQESGPSLVKPSQTLSLTCSVTGDSITSDFWSWIRQFPGNRLEYMGFVQYSGETAYNPSLKSRISITRDTSKNQYYLDLNSVTTEDTAVYYCANWHGDYWGQGTTVTVSSAKTTPPSVYPLAPGSAAQTNSMVTLGCLVKGYFPEPVTVTWNSGSLSSGVHTFPAVLQSDLYTLSSSVTVPSSTWPSETVTCNVAHPASSTKVDKKIVPRDCHHHHHH", "soluble on expression in E. coli": "soluble"}, {"sequence": "MSLTLFGKTSRRPGLPRQAAGLALAACALASLPAQAKESDGDRLQGIVEPIVARQPLKLGVTVVHLLDNFYKGIAYGIVDEARRSNVEVVQVAVAGAYGNVQQQFAQLQSFKTLGVDYAVLSPAAYSGYDPVVADLARSGIKTISAGIPVNSDKIAFGVLQDDTLIGKVLGKALCDDGAQGKQVIVVPGAAGLEWPRLRYEGFKEVASACGAKLTPAAFRGEMSLADGMAQTQDLLMRTPDAEYVFTPVTFLGIGAVRAARQANRPVKVLTSAMVKENEAMIREGRLLAVASEPGVIMGRLIVQYAIREHEGLPMPPLDKPTRSVPYPHFNVPITVVDKSNEGHHHHHH", "soluble on expression in E. coli": "soluble"}, {"sequence": "MGSDKIHHHHHHMTLPMPEKFWDIRIHKVDIHPGVTGLCVGYERGVWRKDQFVRHAMDWLPEFALKESELKGVDSANMVQMVRDAATAIYKSEKFHKRGEFGELFLHMAKRQVFNSIPAVSKIYYKTARNDTVKGFDSVHVVEAEDGLELWLGEVKFYKDLNSAVADVVKELQGHTQTDYLRDEFNLIMNKVDRDWEHYETMKRLMSKNTSLDEVFKRACIPVLLTYESEAICQCSVCDEEYKKLFINEIREAYKLFSSKKLPTDIRIHLFLFPLASKPELIKALDKKLKLWQQL", "soluble on expression in E. coli": "not soluble"}, {"sequence": "SLCQEKHTHTHSQKHLKAVCNRLSRTIGHLSAIKRMVENDKDCSEILIQLAAVKAEVNNTAKVVLKEHLAHCMVHAIEENDIQSIEELNKAIDMFMK", "soluble on expression in E. coli": "soluble"}, {"sequence": "MGSDKIHHHHHHMPNVNLDALIPREDFEVIENNSRASSFNQNVSVKDLEKGEFFYAGLRKPDFQRETSDWTDEQLCEFIQSFIDGDLIPAVILWNSGPYNFVIDGAHRLGALISWINDDYGDGHISQKFFNNEIDDEQKDIANKTRERIKNTVKPYSDYKKVILDSSDCDRGILEKALSLGRTSIQLQWVTGGAEKAELSFFKINQKASKINDTEIELLKSRRKAFAIASRAIIRAGTGHQYWSKFDNDVMQNIETMAKEIHSLIFLPKVSGAVRTLDLPLVKKHNSPQTNSFIFDLVKKCNNVPVNTIKIDDDDNGKLTVEYLKNVRKFLRRINSSHPSSLGLHPLVYFYNKRGNHIYSAILAWVDTIVTIEKTKVSLSSFLFIRSDLEKFLIKYKHFISGVNAKYGSGVKSYKHILKINSIIINQLQKRESEKYIVDSILNEYGFLSESDDVNVTSARFSTDIKSQIYIQETLPKTSTCSHCHGFIHQNSISFDHIVRKQDGGKGNVGNGALMHPYCNTSEKN", "soluble on expression in E. coli": "not soluble"}, {"sequence": "MRGRQKIAIVGAGLGGAAAATLLQQAGFDVEVFEQAPAFTRLGAGIHIGPNVMKIFRRMGLEQKLELMGSHPDFWFSRDGNTGDYLSRIPLGEFARREYGAAYITIHRGDLHALQIEAIQPGTVHFGKRLEKIVDEGDQVRLDFADGTHTVADIVIGADGIHSKIREELLGAEAPIYSGWVAHRALIRGVNLAQHADVFEPCVKWWSEDRHMMVYYTTGKRDEYYFVTGVPHEAWDFQGAFVDSSQEEMRAAFEGYHPTVQKLIDATESITKWPLRNRNPLPLWSRGRLVLLGDACHPMKPHMAQGACMAIEDAAMLTRCLQETGLSDHRTAFALYEANRKERASQVQSVSNANTWLYSQEDPAWVYGYDLYGQQLESGEAALEHHHHHH", "soluble on expression in E. coli": "soluble"}, {"sequence": "MIKWPWKAQEITQNEDWPWDDALAIPLLVNLTAQEQARLIALAERFLQQKRLVALQGFELDSLKSARIALIFCLPILELGIEWLDGFHEVLIYPAPFVVDDEWEDDIGLVHSQRVVQSGQSWQQGPIILNWLDIQDSFDASGFNLIIHEVAHKLDMRNGDRASGIPFIPLRDVAGWEHDLHAAMNNIQDEIDLVGESAASIDAYAATDPAECFAVLSEYFFSAPELFAPRFPALWQRFCQFYRQDPSQRLRVSAAEGDYGEESEH", "soluble on expression in E. coli": "not soluble"}, {"sequence": "SPNSMSALKAVFQYIDENQDRYVKKLAEWVAIQSVSAWPEKRGEIRRMMEVAAADVQRLGGSVELVDIGKQKLPDGSEIPLPPILLGKLGSDPQKKTVCIYGHLDVQPAALEDGWDSEPFTLVEREGKLYGRGSTDDKGPVAGWMNALEAYQKTGQEIPVNLRFCLEGMEESGSEGLDELIFAQKDKFFKDVDYVCISDNYWLGKNKPCITYGLRGICYFFIEVECSDKDLHSGVYGGSVHEAMTDLISLMGCLVDKKGKILIPGINDAVAPVTDEEHALYDHIDFDMEEFAKDVGAETLLHSCKKDILMHRWRYPSLSLHGIEGAFSGSGAKTVIPRKVVGKFSIRLVPDMIPEVVSEQVSSYLSKKFAELQSPNKFKVYMGHGGKPWVSDFNHPHYQAGRRALKTVFGVEPDLTREGGSIPVTLTFQEATGKNVMLLPVGSADDGAHSQNEKLNRLNYIEGTKMLAAYLYEVSQLKN", "soluble on expression in E. coli": "soluble"}, {"sequence": "MSKQPMTPFEAIGGEQCIAILVDTFYSYVSKHPDLSPIFPEDLTETARKQKQFLTQYLGGPNLYTEEHGHPMLRARHLPFEITPKRAEAWLSCMEQAMDDTGVHGHIREFVFERLALTAQHMVNTPNETGEV", "soluble on expression in E. coli": "not soluble"}]}]}
